We go through 1 molecule from patent publication US20200317817A1 (XOMA US, published 2020).

Numbering of substitutions follows the chain as printed.

Assay [1] concerns the target T1, rat PTH1R on UMR106 cells (rat, UniProt P25961 27-591).
T1 sequence (looked up): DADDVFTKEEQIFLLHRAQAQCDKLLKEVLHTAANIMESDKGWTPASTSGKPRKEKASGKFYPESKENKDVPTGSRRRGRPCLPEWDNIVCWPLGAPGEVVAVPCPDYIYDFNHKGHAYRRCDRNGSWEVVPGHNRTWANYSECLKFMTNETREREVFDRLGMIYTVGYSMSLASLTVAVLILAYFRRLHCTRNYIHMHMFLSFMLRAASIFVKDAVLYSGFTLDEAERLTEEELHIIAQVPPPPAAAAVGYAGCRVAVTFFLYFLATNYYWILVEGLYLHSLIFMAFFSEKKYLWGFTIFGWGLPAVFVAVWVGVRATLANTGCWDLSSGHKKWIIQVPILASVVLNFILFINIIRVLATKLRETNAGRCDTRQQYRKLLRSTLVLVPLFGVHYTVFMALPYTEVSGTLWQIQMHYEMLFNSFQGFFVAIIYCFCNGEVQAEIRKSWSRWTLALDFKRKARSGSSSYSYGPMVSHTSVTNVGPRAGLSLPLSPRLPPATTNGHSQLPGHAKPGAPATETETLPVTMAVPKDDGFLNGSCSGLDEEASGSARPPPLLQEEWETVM
Kind of assay: cell-based or functional assay.

Assay [2] deals with T2, human PTH1R on Saos-2 cells (endogenous) (human, UniProt Q03431 27-593).
T2 sequence (looked up): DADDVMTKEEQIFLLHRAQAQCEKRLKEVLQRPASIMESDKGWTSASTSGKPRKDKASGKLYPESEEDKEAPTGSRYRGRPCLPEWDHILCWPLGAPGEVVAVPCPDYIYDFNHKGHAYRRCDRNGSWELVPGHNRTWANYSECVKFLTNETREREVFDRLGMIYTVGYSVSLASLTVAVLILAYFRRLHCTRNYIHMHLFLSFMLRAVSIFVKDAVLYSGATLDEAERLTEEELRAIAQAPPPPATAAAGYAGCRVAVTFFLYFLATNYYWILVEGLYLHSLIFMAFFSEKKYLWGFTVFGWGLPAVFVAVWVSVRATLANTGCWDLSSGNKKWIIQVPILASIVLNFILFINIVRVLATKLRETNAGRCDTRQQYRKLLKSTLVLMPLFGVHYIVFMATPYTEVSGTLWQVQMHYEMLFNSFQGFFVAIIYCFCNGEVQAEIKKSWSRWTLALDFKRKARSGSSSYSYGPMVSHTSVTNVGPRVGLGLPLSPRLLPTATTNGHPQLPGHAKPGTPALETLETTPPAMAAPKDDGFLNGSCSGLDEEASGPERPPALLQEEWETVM
Kind of assay: cell-based or functional assay.

In assay [3] the target is T3, human PTH1R overexpressed on CHO cells (human, UniProt Q03431 27-593).
T3 sequence (looked up): T2 sequence (looked up)
Put plainly: cell-based or functional assay.

Assay [4] deals with T4, mouse PTH1R overexpressed on CHO cells (mouse, UniProt P41593 27-591).
T4 sequence (looked up): T1 sequence (looked up) with S58P, P497L, T518I, T520N, L523I, A528T
Put plainly: cell-based or functional assay.

Assay [5] deals with T5, human PTH2R overexpressed on CHO cells (human, UniProt P49190 25-550).
T5 construct: whole, on cells; also called CHO human PTH2R
T5 sequence (P49190 25-550): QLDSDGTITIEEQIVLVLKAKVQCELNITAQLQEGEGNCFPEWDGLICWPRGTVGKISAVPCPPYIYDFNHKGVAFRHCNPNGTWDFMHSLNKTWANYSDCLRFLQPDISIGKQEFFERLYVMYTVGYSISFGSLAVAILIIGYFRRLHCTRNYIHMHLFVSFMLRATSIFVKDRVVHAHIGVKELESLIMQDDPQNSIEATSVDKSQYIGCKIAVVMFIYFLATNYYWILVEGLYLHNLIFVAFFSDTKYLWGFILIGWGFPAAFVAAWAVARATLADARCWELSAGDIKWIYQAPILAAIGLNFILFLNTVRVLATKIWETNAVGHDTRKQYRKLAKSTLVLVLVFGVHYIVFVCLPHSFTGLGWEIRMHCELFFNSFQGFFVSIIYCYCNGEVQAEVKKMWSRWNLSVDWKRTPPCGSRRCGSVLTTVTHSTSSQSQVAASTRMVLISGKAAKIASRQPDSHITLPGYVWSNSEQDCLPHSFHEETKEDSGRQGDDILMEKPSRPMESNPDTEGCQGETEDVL
Kind of assay: flow cytometry on CHO cells overexpressing human PTH2R, 1 hr at 4 C, APC anti-human IgG. On the procedure:
Increasing concentrations of anti-PTH1R antibodies were added to CHO cells overexpressing human PTH2R and incubated for 1 hr at 4° C. (FIG. 8). Cells were washed twice with FACS Buffer and antibody binding was detected with anti-human IgG APC. […] Anti-KLH.G2 was used a negative control for binding.
PTH2R has a 51% homology to PTH1R. […] Following two washes, cells were incubated with Allophycocyanin (APC) AffiniPure F(ab′)₂ Fragment Goat Anti-Human IgG (H+L) (Jackson ImmunoResearch, West Grove, Pa.) for 20 minutes at 4° C. Cells were washed twice and resuspended in FACS Buffer. Samples were acquired using BD Cytometer (BD Biosciences, San Jose, Calif.) and data were analyzed using FlowJo (FlowJo, LLC, Ashland, Oreg.) and Prism (GraphPad Software, La Jolla, Calif.). […] Anti-KLH.G2 was used a negative control for binding.
(In general: In flow cytometry, cells or beads pass a laser one at a time.)

Assay [6] has as its target T6, human PTH1R overexpressed on Saos-2 cells (human, UniProt Q03431 27-593).
T6 construct: whole, on cells; also called Saos-2 human PTH1R cells
T6 sequence (looked up): T2 sequence (looked up)
Kind of assay: flow cytometry on Saos-2 cells overexpressing human PTH1R, antibody alone, PE anti-human IgG.

For assay [7], the target named is T6, human PTH1R overexpressed on Saos-2 …. Kind of assay: flow cytometry on Saos-2 cells overexpressing human PTH1R, in the presence of 1 uM PTH, PE anti-human IgG.
Assay [8] shares this target. Kind of assay: flow cytometry on Saos-2 cells overexpressing human PTH1R, in the presence of 3 uM PTHrP, PE anti-human IgG. The text has this:
Antibody binding was detected with R-Phycoerythrin anti-human IgG.

B1: XPA.85.329 (antibody, V domains shown)
VH: QMQLVQSGAEVKKPGSSVKVSCKASGGTFSSYAISWVRQAPGQGLEWMGGIIPIFGTANYAQKFQGRVTITADESTSTAYMELSSLRSEDTAVYYCARGYVVARLWGQGTLVTVSS
VL: DIVMTQTPLSLSVTPGQPASISCKSSQSLLHIDGLTYLYWYLQKPGQPPQLLIYEVSHRFSGVSDKFSGSGSGTDFTLTISRVEAEDVGVYYCMQSLHLPITFGQGTRLEIK
notes: IgG; also called Ab329; XPA.329
For the molecule B1, the “% inhibition of cAMP accumulation at 1 µM PTH(1-34), 267 nM IgG” value is 50% in assay [1] and 79% in assay [2]. For the same molecule, the results for the “% inhibition of cAMP accumulation at 1 µM PTHrP(1-34), 267 nM IgG” value in assay [1] and in assay [2] were 41% and 90%, respectively. In assay [3], the “IC50, inhibition of PTH(1-34)-induced cAMP accumulation” value came out at 16.6 nM. The “IC50, inhibition of PTHrP(1-34)-induced cAMP accumulation” value was 6.54 nM in assay [3] and 2.66 nM in assay [4]. In addition, the binding result in assay [5] is recorded as “no binding (tested: about 160 nM)”. Further, the EC50 (in general, the concentration at which the effect is half-maximal) was 7.61 nM in assay [6], 35.3 nM in assay [7] and 656 nM in assay [8].
